“And” between values parts separate entries of the source, which are not always exact repeats. Identical values can stand only once.
Experiments:
cynomolgus TNF-α [1] = target: T1, cynomolgus TNF-α (cynomolgus, UniProt P79337 77-233); assay: cell-based or functional assay
[2] = target: native (endogenous) human TNF-α (human, UniProt P01375 77-233); assay: cell-based or functional assay
[3] = target: T2, recombinant human IL-17A/F heterodimer (human, UniProt Q16552 24-155; Q96PD4 31-163); assay: cell-based or functional assay
[4] = target: T3, human IL-17A (recombinant) (human, UniProt Q16552 24-155); assay: competition ELISA: biotinylated rhIL-17A binding to plate-coated rhIL-17RA-Fc; Experiment 3; 95% CI 0.2433-0.2757
T3 construct: Biotinylated in the IL-17RA ELISA; also called rhIL-17A

[5] = target: T2, recombinant human IL-17A/F heterodimer; assay: cell-based or functional assay; remark: listed apart in the source
[6] = target: T4, rhTNF-α (recombinant human, soluble) (human, UniProt P01375 77-233); assay: SPR (Biacore 3000), mAb captured by anti-IgG Fc, antigen in solution, 25 C, 1:1 Langmuir
T4 construct: also called human TNF-α; soluble rhTNF-α

[7] = target: T3, human IL-17A (recombinant); assay: competition ELISA: biotinylated rhIL-17A binding to plate-coated rhIL-17RA-Fc; Experiment 1; 95% CI 0.09343-0.1160
[8] = target: T3, human IL-17A (recombinant); assay: cell-based or functional assay
[9] = target: T4, rhTNF-α (recombinant human, soluble); assay: cell-based or functional assay
[10] = target: protease-resistant form of human transmembrane TNF-α (lacks amino acids Val1 to Pro12) overexpressed by K2 … (human, UniProt P01375 1-233); assay: cell-based or functional assay
[11] = target: T3, human IL-17A (recombinant); assay: SPR (Biacore 3000), mAb captured by anti-IgG Fc, antigen in solution, 25 C, 1:1 Langmuir
[12] = target: T3, human IL-17A (recombinant); assay: competition ELISA: biotinylated rhIL-17A binding to plate-coated rhIL-17RA-Fc; Experiment 2; 95% CI 0.1474-0.1920
cynomolgus TNF-α [13] = target: T1, cynomolgus TNF-α; assay: SPR (Biacore 3000), mAb captured by anti-IgG Fc, antigen in solution, 1:1 Langmuir
recombinant human IL-17F = target: T5, recombinant human IL-17F (human, UniProt Q96PD4 31-163); assay: binding to rhIL-17A in the absence or presence of IL-17F
T5 sequence: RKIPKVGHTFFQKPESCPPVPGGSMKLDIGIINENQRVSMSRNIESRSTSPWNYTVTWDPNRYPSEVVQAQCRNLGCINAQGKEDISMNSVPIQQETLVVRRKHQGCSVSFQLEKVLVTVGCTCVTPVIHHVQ

[14] = target: T4, rhTNF-α (recombinant human, soluble); assay: cell-based or functional assay; remark: listed apart in the source
[15] = target: T3, human IL-17A (recombinant); assay: competition ELISA: biotinylated rhIL-17A binding to plate-coated rhIL-17RA-Fc
cynomolgus IL-17A [16] = target: T6, cynomolgus IL-17A (cynomolgus, UniProt Q16552 24-155 (human entry), limits assumed); assay: cell-based or functional assay
T6 chain: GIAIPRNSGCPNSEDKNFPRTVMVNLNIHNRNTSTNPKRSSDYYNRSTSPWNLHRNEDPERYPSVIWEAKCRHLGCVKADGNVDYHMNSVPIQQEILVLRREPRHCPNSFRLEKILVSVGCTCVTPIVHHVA

[17] = target: T4, rhTNF-α (recombinant human, soluble); assay: cell-based or functional assay; remark: listed apart in the source
mouse IL-17A [18] = target: T7, mouse IL-17A (mouse, UniProt Q62386 26-158); assay: SPR (Biacore 3000), mAb captured by anti-IgG Fc, antigen in solution, 1:1 Langmuir;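 note: run in PBS containing BSA and P20 at 25 °C, antigen injected at four dilutions, 3 min association, dissociation followed 20 min to 2 h, two independent experiments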
T7 sequence: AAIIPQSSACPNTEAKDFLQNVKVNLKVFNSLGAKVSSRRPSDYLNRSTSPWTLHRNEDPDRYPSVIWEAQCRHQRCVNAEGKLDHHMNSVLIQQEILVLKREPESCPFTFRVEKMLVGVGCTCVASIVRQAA

rat IL-17A [19] = target: T8, rat IL-17A (rat, UniProt Q61453 18-150); assay: as above
T8 chain: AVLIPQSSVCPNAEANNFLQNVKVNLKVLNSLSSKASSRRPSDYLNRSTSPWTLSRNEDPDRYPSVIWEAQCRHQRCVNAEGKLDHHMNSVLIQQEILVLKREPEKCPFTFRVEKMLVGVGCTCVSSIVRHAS

cynomolgus IL-17A [20] = target: T6, cynomolgus IL-17A; assay: as above
mouse TNF-α = target: T9, mouse TNF-α (mouse, UniProt P06804 80-235); assay: SPR (Biacore 3000), mAb captured by anti-IgG Fc, antigen in solution
T9 sequence: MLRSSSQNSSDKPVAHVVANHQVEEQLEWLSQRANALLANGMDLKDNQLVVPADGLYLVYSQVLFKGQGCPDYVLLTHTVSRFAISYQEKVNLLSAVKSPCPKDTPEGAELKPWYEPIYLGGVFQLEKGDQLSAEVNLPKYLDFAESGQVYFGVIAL

rat TNF-α = target: T10, rat TNF-α (rat, UniProt P16599 80-235); assay: as above
T10 sequence: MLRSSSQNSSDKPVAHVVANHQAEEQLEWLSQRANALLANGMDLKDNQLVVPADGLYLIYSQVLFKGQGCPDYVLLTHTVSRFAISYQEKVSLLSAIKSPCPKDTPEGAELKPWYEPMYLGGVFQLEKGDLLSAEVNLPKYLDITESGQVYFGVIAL

cynomolgus IL-17A [21] = target: T6, cynomolgus IL-17A; assay: cell-based or functional assay
[22] = target: T3, human IL-17A (recombinant); assay: cell-based or functional assay; remark: listed apart in the source
mouse IL-17A [23] = target: T7, mouse IL-17A; assay: SPR (Biacore 3000)
rat IL-17A [24] = target: T8, rat IL-17A; assay: SPR (Biacore 3000)

B1: mAb 9762 (bispecific anti-TNF-α/IL-17A antibody, IgG1) (bispecific antibody)
heavy 1: not shown
light 1: not shown
heavy 2: not shown
light 2: QSVLTQPPSVSVAPGQTARISCSGDNLGDKYANWYQQKPGQAPVLVIYDDIDRPSGIPERFSGSNSGNTATLTISGTQAEDEADYYCGSYDFFLGMIVFGGGTKLTVLGQPKAAPSVTLFPPSSEELQANKATLVCLISDFYPGAVTVAWKADSSPVKAGVETTTPSKQSNNKYAASSYLSLTPEQWKSHRSYSCQVTHEGSTVEKTVAPTECS
Cynomolgus TNF-α [1]
  IC50 (nM); Inhibition of cyno TNF-α mediated cytotoxicity in WEHI-164 cells; Experiment 1: 4.42 nM
  IC50 (nM); Inhibition of cyno TNF-α mediated cytotoxicity in WEHI-164 cells; Experiment 2: 20.6 nM
  IC50 (nM); Inhibition of cyno TNF-α mediated cytotoxicity in WEHI-164 cells; Experiment 3: 9.29 nM
[2]
  IC50 (nM); KYM-1D4 cells, cytotoxicity mediated by endogenous soluble TNF-α; Experiment 1: 0.346 nM
  IC50 (nM); KYM-1D4 cells, cytotoxicity mediated by endogenous soluble TNF-α; Experiment 2: 0.327 nM
  IC50 (nM); KYM-1D4 cells, cytotoxicity mediated by endogenous soluble TNF-α; Experiment 3: 0.197 nM
[3]
  IC50 (µg/mL); Inhibition of IL-17A/F mediated IL-6 production by NHDF; Experiment 1: 0.135 µg/mL
  IC50 (µg/mL); Inhibition of IL-17A/F mediated IL-6 production by NHDF; Experiment 2: 0.174 µg/mL
  IC50 (µg/mL); Inhibition of IL-17A/F mediated IL-6 production by NHDF; Experiment 3: 0.131 µg/mL
[4]
  IC50: 0.259 µg/mL
[5]
  IC50 (µg/mL); Inhibition of IL-17A/F mediated GROα production by NHDF; Experiment 1: 0.549 µg/mL
  IC50 (µg/mL); Inhibition of IL-17A/F mediated GROα production by NHDF; Experiment 2: 0.436 µg/mL
  IC50 (µg/mL); Inhibition of IL-17A/F mediated GROα production by NHDF; Experiment 3: 0.392 µg/mL
[6]
  Kd: 18.8 pM and 21.1 pM
  koff: 3.81e-05 s⁻¹ and 3.63e-05 s⁻¹
  kon: 2.02e+06 M⁻¹ s⁻¹ and 1.72e+06 M⁻¹ s⁻¹
[7]
  IC50: 0.104 µg/mL
[8]
  IC50 (µg/mL); Inhibition of native IL-17A mediated IL-6 production by NHDF; Experiment 1: 0.0501 µg/mL
  IC50 (µg/mL); Inhibition of native IL-17A mediated IL-6 production by NHDF; Experiment 2: 0.0445 µg/mL
  IC50 (µg/mL); Inhibition of native IL-17A mediated IL-6 production by NHDF; Experiment 3: 0.049 µg/mL
[9]
  IC50 (nM); WEHI-164 cells cytotoxicity mediated by soluble rhTNF-α; Experiment 1: 1.28 nM
  IC50 (nM); WEHI-164 cells cytotoxicity mediated by soluble rhTNF-α; Experiment 2: 2.07 nM
  IC50 (nM); WEHI-164 cells cytotoxicity mediated by soluble rhTNF-α; Experiment 3: 0.631 nM
[10]
  IC50 (nM); KYM-1D4 cells, cytotoxicity mediated by membrane bound human TNF-α; Experiment 1: 0.82 nM
  IC50 (nM); KYM-1D4 cells, cytotoxicity mediated by membrane bound human TNF-α; Experiment 2: 0.966 nM
  IC50 (nM); KYM-1D4 cells, cytotoxicity mediated by membrane bound human TNF-α; Experiment 3: 0.425 nM
[11]
  Kd: 22 pM and 45.3 pM
  koff: 4.15e-05 s⁻¹ and 3.99e-05 s⁻¹
  kon: 1.88e+06 M⁻¹ s⁻¹ and 882000 M⁻¹ s⁻¹
[12]
  IC50: 0.168 µg/mL
Cynomolgus TNF-α [13]
  Kd: 399 pM and 186 pM
  koff: 0.000103 s⁻¹ and 0.000127 s⁻¹
  kon: 259000 M⁻¹ s⁻¹ and 681000 M⁻¹ s⁻¹
Recombinant human IL-17F
  binding result: no binding
[14]
  fold of IC50 against the parental anti-TNF-α antibodies mAb 9809 and mAb 6696; rhTNF-α-induced cytotoxicity in WEHI-164 cells: ~3 fold
[15]
  fold IC50 against the parental anti-IL-17A antibodies mAb 4782 and mAb 7206: ~3 fold
Cynomolgus IL-17A [16]
  IC50 (µg/mL); Inhibition of cyno IL-17A mediated IL-6 production by NHDF; Experiment 2: 0.0784 µg/mL
  IC50 (µg/mL); Inhibition of cyno IL-17A mediated IL-6 production by NHDF; Experiment 3: 0.0583 µg/mL
[17]
  IC50 (nM); KYM-1D4 cells, cytotoxicity mediated by soluble rhTNF-α; Experiment 1: 0.152 nM
  IC50 (nM); KYM-1D4 cells, cytotoxicity mediated by soluble rhTNF-α; Experiment 2: 0.343 nM
  IC50 (nM); KYM-1D4 cells, cytotoxicity mediated by soluble rhTNF-α; Experiment 3: 0.169 nM
Mouse IL-17A [18]
  Kd: 997 pM
  koff: 0.00103 s⁻¹
  kon: 1.03e+06 M⁻¹ s⁻¹
Rat IL-17A [19]
  Kd: 15400 pM
  koff: 0.00316 s⁻¹
  kon: 205000 M⁻¹ s⁻¹
Cynomolgus IL-17A [20]
  Kd: 23.6 pM and 31.8 pM
  koff: 3.66e-05 s⁻¹ and 4.57e-05 s⁻¹
  kon: 1.55e+06 M⁻¹ s⁻¹ and 1.43e+06 M⁻¹ s⁻¹
Mouse TNF-α
  binding result: no binding (tested: up to 100 nM)
Rat TNF-α
  binding result: no binding (tested: up to 100 nM)
Cynomolgus IL-17A [21]
  IC50 (µg/mL); Inhibition of cyno IL-17A mediated GROα production by NHDF; Experiment 1: 0.299 µg/mL
  IC50 (µg/mL); Inhibition of cyno IL-17A mediated GROα production by NHDF; Experiment 2: 0.329 µg/mL
  IC50 (µg/mL); Inhibition of cyno IL-17A mediated GROα production by NHDF; Experiment 3: 0.137 µg/mL
[22]
  IC50 (µg/mL); Inhibition of native IL-17A mediated GROα production by NHDF; Experiment 1: 0.081 µg/mL
  IC50 (µg/mL); Inhibition of native IL-17A mediated GROα production by NHDF; Experiment 2: 0.0648 µg/mL
  IC50 (µg/mL); Inhibition of native IL-17A mediated GROα production by NHDF; Experiment 3: 0.0508 µg/mL

B2: mAb 6785 (original parental anti-IL-17A mAb) (antibody, V domains shown)
VH: QVQLLESGGGLVQPGGSLRLSCAASGFTFSSYAMSWVRQAPGKGLEWVSTISLTSGFTYYADSVKGRFTISRDNSKNTLYLQMNSLRAEDTAVYYCARQLTLDVWGQGTLVTVSS
VL: QSVLTQPPSVSVAPGQTARISCSGDNLGDKYANWYQQKPGQAPVLVIYDDIDRPSGIPERFSGSNSGNTATLTISGTQAEDEADYYCGSYDFFLGMIVFGGGTKLTVL
[11]
  Kd: 30.9 pM
  koff: 4.79e-05 s⁻¹
  kon: 1.55e+06 M⁻¹ s⁻¹
Mouse IL-17A [23]
  binding result: binds
Rat IL-17A [24]
  binding result: binds
Cynomolgus IL-17A [20]
  Kd: 28.6 pM
  koff: 3.68e-05 s⁻¹
  kon: 1.29e+06 M⁻¹ s⁻¹

— patent US20200010571A1 (Janssen / Centocor, published 2020)
